For experiment [1], the target named is T1, Recombinant human transferrin receptor (human, UniProt P02786 89-760, limits assumed).
T1 construct: Recombinant protein; also called transferrin receptor (human protein)
The experiment in a line: ELISA: recombinant human transferrin receptor coated at 1 ug/mL, biotinylated peptide titrated, detection with streptavidin-HRP/TMB, absorbance at 450 nm. The method, then:
(§1) Recombinant human transferrin receptor was absorbed onto high binding ELISA plates at 1 μg/mL. […] Retained MTS peptide was detected using streptavidin-HRP and TMB reagent. The absorbance was measured at 450 nm and is proportional to the amount of MTS peptide captured by transferrin receptor. As shown, MTS2_V1-2 binds to […] in a concentration dependent manner which saturates at higher concentrations. By comparison, MTS3_V1-2 and a scrambled control peptide of MTS2_V1-2 show no binding. The binding affinity of MTS2_V1-2 for transferrin receptor was determined by biolayer interferometry on a OctetRED 96 system. The biotinylated MTS2_V1-2 peptide was captured on streptavidin probe. The kon and koff rate were determined at various concentrations of human or mouse transferrin receptor allowing for determination of the dissociation constant.
(An ELISA detects its analyte on a solid surface through an enzyme-linked reagent.)

In experiment [2] the target is T1, Recombinant human transferrin receptor. In words: biolayer interferometry (OctetRED 96); biotinylated peptide on streptavidin probe, receptor as analyte; human transferrin receptor. Here is the method: as §1
For orientation: BLI is a label-free optical method that tracks binding on a fibre tip over time.

The target in experiment [3] is T2, Mouse transferrin receptor (mouse, UniProt Q62351 89-763, limits assumed).
T2 construct: Used as the analyte in BLI; also called mouse receptor
In words: biolayer interferometry (OctetRED 96); biotinylated peptide on streptavidin probe, receptor as analyte; mouse transferrin receptor. The method, then:
as §1

Ends that are not written are not given here.

T1 sequence (P02786 89-760 limits assumed): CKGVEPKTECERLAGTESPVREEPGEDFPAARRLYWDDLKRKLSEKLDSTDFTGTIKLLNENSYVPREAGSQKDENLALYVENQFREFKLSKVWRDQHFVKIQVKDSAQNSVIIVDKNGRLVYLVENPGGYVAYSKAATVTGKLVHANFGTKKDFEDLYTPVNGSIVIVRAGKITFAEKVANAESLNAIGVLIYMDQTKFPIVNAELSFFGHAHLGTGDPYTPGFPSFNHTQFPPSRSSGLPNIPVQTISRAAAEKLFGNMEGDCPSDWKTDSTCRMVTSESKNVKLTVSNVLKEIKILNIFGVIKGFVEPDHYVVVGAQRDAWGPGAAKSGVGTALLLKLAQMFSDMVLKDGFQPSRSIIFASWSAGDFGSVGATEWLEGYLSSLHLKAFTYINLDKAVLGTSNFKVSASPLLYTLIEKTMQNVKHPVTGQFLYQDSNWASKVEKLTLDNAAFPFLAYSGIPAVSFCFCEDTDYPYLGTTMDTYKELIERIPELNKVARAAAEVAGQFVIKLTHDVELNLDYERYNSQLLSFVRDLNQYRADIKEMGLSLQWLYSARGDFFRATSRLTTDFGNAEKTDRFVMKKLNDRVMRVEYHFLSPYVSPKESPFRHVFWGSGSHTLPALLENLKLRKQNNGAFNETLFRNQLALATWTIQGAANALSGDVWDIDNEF
T2 sequence (Q62351 89-763 limits assumed): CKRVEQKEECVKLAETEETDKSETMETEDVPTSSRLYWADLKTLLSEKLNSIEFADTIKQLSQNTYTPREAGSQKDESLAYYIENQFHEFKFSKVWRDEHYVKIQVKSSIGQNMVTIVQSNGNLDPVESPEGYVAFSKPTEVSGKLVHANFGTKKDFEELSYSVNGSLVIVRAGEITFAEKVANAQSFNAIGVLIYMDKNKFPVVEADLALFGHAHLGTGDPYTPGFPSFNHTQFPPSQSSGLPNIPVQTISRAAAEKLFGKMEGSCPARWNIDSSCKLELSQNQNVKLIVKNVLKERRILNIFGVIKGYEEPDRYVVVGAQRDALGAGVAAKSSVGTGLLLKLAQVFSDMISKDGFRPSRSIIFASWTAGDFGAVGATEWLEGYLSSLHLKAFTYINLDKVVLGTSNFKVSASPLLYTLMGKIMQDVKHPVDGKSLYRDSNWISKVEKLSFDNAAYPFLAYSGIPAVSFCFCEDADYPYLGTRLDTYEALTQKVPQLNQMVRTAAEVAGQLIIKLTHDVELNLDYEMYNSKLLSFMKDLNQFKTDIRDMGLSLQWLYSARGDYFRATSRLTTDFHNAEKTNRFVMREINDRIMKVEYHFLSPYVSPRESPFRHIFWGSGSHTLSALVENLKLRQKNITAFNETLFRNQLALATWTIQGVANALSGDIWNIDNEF

B1: MTS3_V1-2 (biotinylated dimeric Ac-SKETYSMNAQRQHERS) (peptide)
peptide: Ac-SKETYSMNAQRQHERS
modifications: also: dimer: C-terminus joined through a linker to a dimeric core, biotinylated, place not given here
notes: Biotinylated for the ELISA; also called dimer version of MTS3_V1; biotinylated MTS3_V1-2
For B1, the binding result in experiment [1] was “no binding (tested: 1000 nM)”.

B2: MTS2_V1-2 (biotinylated dimeric Ac-FPSWTSKNQQWTNQRQ) (peptide)
peptide: Ac-FPSWTSKNQQWTNQRQ
modifications: also: dimer: C-terminus joined through a linker to a dimeric core, biotinylated, place not given here
notes: Biotinylated for the ELISA and for capture on the streptavidin probe in BLI; also called dimer version of MTS2_V1; biotinylated MTS2_V1-2
With B2, the Kd (commonly the free concentration of one partner at which half of the binding sites on the other are occupied at equilibrium, for simple one-to-one binding) turned out to be 210 nM in experiment [2] and 12 nM in experiment [3]. For the same molecule, the EC50 (read off the curve) (commonly the concentration needed to bring the measured effect to its halfway point) in experiment [1] is ~100 nM.

The values are drawn from patent publication US20260159551A1 (SRI INTERNATIONAL, published 2026).
